Experimental data from patent US20230257452A1 (GTINVENT, published 2023).

These binders were tested against T1, dGAE (tau 297-391) (human, UniProt P10636 614-708) (assay: tau-tau immunoassay: scAb preincubated with 100 nM dGAE; blocked ligand: plate-bound dGA (1000 nM); bound dGAE detected with E2E8).
T1 construct: also called dGAE95
Protocol: The adapted method is as follows: dGA (1000 nM) was adsorbed to a Nunc 96-well MaxiSorp plate and incubated for 1 h at 37° C. Plates were subsequently washed 3 times with PBST which was performed after each 1 h incubation. The plates were blocked with 2% (w/v) dried milk powder in PBS for 1 h at 37° C. […] The secondary antibody used was HRP-conjugated Anti-mouse IgG (1:1000 dilution, Sigma) and incubated at RT for 1 h. The plate was subsequently developed, and readings taken at absorbance 450 nm.

T1 sequence (P10636 614-708 limits assumed): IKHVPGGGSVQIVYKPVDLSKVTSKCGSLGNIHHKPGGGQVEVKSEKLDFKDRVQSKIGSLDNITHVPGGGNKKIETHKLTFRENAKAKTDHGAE

B50 | Binder
209 nM | CE3 scAb (scFv, not shown: human C kappa domain and hexa-His tag of the scAb format) scFv: QVRLQESGPSLVKPSQTLSVTCTVSGFSLISNAVGWVRQAPGKVPESLAGCSSDGKCYYNSALKSRLDITRDTSKNQISLSLSSVTTDDAAVYYCTRGYYPVYGYDYLGTIDYWGPGLLVTVSSEGKSSGASGESKVDDQAVLTQPSSVSGSLGQRVSITCSGSSSNVGRNDVAWFQQLPGSGLRTIIYGTTSRPSGIPDRFSGSKSGVTATLTIDSLQAEDEADYFCASGDSSAINDIFGSGTRLTVLG
107 nM | S1D9 scAb (scFv, not shown: human C kappa domain and hexa-His tag of the scAb format) scFv: QVQLQESGPSLVKPSQTLSLTCTVSGFSLTSNSVGWVRQAPGKAPEWVAGIDSDGEEGYNPALNSRLSITRDTSKNQVSLSLSRVTSEDTAVYYCGRTYRTDGYAYGYVQAIDYWGPGLLVTVSSEGKSSGASGESKVDDRVMLTQPPSVSGSPGQTVSITCSGSFIGISSVGWFQQLPGSGLRTVIFASDGRPSGVPDRFSNSKSGNTATLTISSLQAEDEADYFCGSSDRTQYTGVFGSGTRLTVLS
93 nM | CB2 scAb (scFv, not shown: human C kappa domain and hexa-His tag of the scAb format) scFv: QVQLQESGPSLVKPSQTLSLTCTVSGFSLSTNSVGWVRQAPGKAPEWVAGIDTDGEEGFNPVLKSRLSITRDTSKSQVSLSLSNVTSEDTAVYYCGRSYRTDGLAYGYVQAIDYWGPGLLVTISSEGKSSGASGESKVDDQSVLTQPSSVSGSPGQTVSITCSGSYIGSSGVGWFQQLPGSGLRTIIVASDGRPSGVPDRFSMSKSGNTATLTISSLQAEDEADYFCGSSDRTQYTGLFGSGTRLTVLG
51 nM | S2C6 scAb (scFv, not shown: human C kappa domain and hexa-His tag of the scAb format) scFv: QVQLQESGPSLVKPSQTLSLTCTVSGFSLISNSVGWVRQAPGKAPEWVAGIDTDGEEGYNPALKSQYAASDPDTSKSQVSLSLSSVTSEDTAVYYCGRTYRTDGFAYGYVQAIDYWGPGLLLTISSEGKSSGASGESKVDDQAVLTQPSSVSGSLGQRVSITCSGSFIGISSVGWFQQLPGSGLRTIIVASDGRPSGVPDRFSMSKSGNTATLTISSLQAEDEADYFCGSSDRTQYTGVFGSGTRLTVLG
101 nM | S1B1 scAb (scFv, not shown: human C kappa domain and hexa-His tag of the scAb format) scFv: QVQLQESGPSLVKPSQTLSLTCTVSGFSLSSNSVGWVRQAPGKAPEWVAGIDTDGEEGYNPALNSRLSITRDTSKSQVSLSLSSVTSEDTAVYYCVRSYRTDGLAYGYVQAIDYWGPGLLVTVSSEGKSSGASGESKVDDQAVLTQPSSVSGSLGQRVSITCSGSFIGISSVGWFQQLPGSGLRTVIVASDGRPSGVPDRFSNSKSGNTATLTISSLQAEDEADYFCGSSDRTQYTGVFGSGTRLTVLG
92 nM | S1E12 scAb (scFv, not shown: human C kappa domain and hexa-His tag of the scAb format) scFv: QVQLQESGPSLVKPSQTLSLTCTVSGFSLGSNSVGWVRQAPGKAPEWVAGIDTDGEEGYNPALNSRLSITRDTSKSQVSLSLSSVTSEDTAVYYCGRSYRADGLAYGYVQAIDYWGPGLLVTVSSEGKSSGASGESKVDDRVVRTQPSSVSGSLGQRVSITCSGSFIGISSVGWFQQLPGSGLRTIIVASDGRPSGVPDRFSMSKSGNTATLTISSLQAEDEADYFCGSSDRTQYTGVFGSGTRLTVLG
211 nM | CE2 scAb (scFv, also called CE2/E1B8; not shown: human C kappa domain and hexa-His tag of the scAb format) scFv: QVQLQESGPSLVKPSQTLSLTCTVSGFSLTNYPVGWVRQAPGKALEWIGNIENDGSANYASALKSRLSITRDTSKNQVSLSLSSATTEDTAVYYCGREFGGSDGYTYFVDIDYWGPGLLVTVSSEGKSSGASGESKVDDQAVLTQPSSVSKSLGQSVSITCSGSSSNVGYGNYVSWFQQVPGSAPKILIYGATSRASGVPDRFSGSRSGNTATLTITSLQAEDEADYYCASYDGSSSGVFGSGTRLTVLG
